Here are results for two molecules from US20060029946A1 (Scripps Research, published 2006).

The target of test [1] is T1, Cdc42-GTPγS (activated Cdc42) (UniProt P60953 1-191).
T1 construct: also called GTPγS-Cdc42
The test is described as follows: apparent equilibrium binding constant; fluorescence titration of a fixed concentration of labeled WASP fragment with cdc42-GTPγS.

In test [2] the target is T1, Cdc42-GTPγS (activated Cdc42).
Test [3] concerns the target Rac (activated GTPase) (UniProt P63000 1-192). Nature of the test: fluorescence response of the I-SO WASP biosensor with activated GTPases.
Test [4] has as its target RhoA (activated GTPase) (UniProt P61586 1-193). The test is described as above.

T1 sequence (P60953 whole entry): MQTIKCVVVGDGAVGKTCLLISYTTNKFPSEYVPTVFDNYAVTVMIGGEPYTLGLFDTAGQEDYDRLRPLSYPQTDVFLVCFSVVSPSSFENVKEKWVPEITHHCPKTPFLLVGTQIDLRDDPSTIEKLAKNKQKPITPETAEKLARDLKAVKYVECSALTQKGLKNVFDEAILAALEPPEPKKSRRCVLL
Sequence of RhoA (activated GTPase) (P61586 whole entry): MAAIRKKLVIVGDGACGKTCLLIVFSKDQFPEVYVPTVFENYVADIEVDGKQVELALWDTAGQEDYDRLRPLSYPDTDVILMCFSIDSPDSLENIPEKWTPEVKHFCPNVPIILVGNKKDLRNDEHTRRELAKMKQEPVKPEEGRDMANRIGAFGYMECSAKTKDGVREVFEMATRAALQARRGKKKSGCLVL

B1: Wiskott Aldrich Syndrome Protein (WASP) fragment, residues 201-320, F271C, labeled with S-SO dye 2e (other)
chain: DIQNPDITSSRYRGLPAPGPSPADKKRSGKKKISKADIGAPSGFKHVSHVGWDPQNGFDVNNLDPDLRSLCSRAGISEAQLTDAETSKLIYDFIEDQGGLEAVRQEMRRQEPLPPPPPPS
notes: also called labeled WASP fragment; WASP conjugate; not shown: C-terminal 6His fusion from pET23a
B1: the Kd in test [1] worked out at 150 nM. Besides, the “change in fluorescence intensity” value in test [2] stood at 3 fold.

B2: WASP fragment F271C labeled with I-SO dye (other)
chain: DIQNPDITSSRYRGLPAPGPSPADKKRSGKKKISKADIGAPSGFKHVSHVGWDPQNGFDVNNLDPDLRSLCSRAGISEAQLTDAETSKLIYDFIEDQGGLEAVRQEMRRQEPLPPPPPPS
notes: also called I-SO-WASP biosensor; I-SO labeled WASP fragment; not shown: C-terminal 6His fusion from pET23a
In the case of B2, the binding result in test [3] and in test [4] was “no binding” throughout. Also, the “increase in fluorescence intensity” value in test [2] was 2.8 fold.
